Measured values from patent publication US20140087995A1 (published 2014).
Numbered stars: 1 amine (or outer) side, 2 acyl side, 3 side chain; on linkers, the order of the positions; unused ones are H or OH. Bridge positions count the residues as written; N and C are the ends. Side chains are listed from the residue outwards. Ends that are not written are not given here. * marks the point of attachment. C20 diacid = O=C(O)CCCCCCCCCCCCCCCCCCC(=O)*; γGlu = O=C(O)[C@H](CCC(=O)[*:2])N[*:1]; AEEA = NCCOCCOCC(=O)O

T1: rat calcitonin receptor (rat, UniProt P32214 25-516)
T1 construct: whole, on cells; Used as membranes prepared from the transfected cells; also called rCTR; rat calcitonin (a) receptor
T1 sequence (looked up): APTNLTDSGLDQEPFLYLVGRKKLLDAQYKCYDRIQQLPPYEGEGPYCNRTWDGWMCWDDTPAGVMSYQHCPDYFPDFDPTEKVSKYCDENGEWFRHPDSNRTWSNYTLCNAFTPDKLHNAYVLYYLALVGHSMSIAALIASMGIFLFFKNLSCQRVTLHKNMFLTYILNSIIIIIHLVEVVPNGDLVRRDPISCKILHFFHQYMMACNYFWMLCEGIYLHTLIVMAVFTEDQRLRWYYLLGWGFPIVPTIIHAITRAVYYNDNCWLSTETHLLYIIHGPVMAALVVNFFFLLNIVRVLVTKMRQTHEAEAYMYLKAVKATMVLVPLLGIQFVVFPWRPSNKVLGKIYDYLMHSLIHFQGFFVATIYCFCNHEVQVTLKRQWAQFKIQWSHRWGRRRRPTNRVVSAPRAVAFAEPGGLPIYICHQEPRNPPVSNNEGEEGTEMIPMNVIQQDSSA

T2: rat amylin receptor (rat calcitonin receptor + rat RAMP 3) (rat, UniProt P32214 25-516; Q9JJ73 23-147)
T2 construct: whole, on cells; Used as membranes prepared from the transfected cells; also called rAmylin-R; rat amylin 3(a) receptor
T2 sequence (looked up) 1: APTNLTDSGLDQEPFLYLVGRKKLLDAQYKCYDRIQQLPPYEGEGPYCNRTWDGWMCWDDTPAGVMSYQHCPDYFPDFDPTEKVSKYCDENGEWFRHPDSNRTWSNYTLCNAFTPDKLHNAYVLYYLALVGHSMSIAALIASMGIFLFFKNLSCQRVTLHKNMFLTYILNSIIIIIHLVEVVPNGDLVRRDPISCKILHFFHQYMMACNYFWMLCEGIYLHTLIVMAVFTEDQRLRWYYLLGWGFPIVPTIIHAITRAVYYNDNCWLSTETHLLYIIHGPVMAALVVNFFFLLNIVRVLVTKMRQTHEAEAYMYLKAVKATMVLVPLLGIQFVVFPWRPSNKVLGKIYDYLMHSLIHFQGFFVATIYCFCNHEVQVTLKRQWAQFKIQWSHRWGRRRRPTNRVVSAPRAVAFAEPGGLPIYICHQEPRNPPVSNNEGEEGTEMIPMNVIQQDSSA
T2 sequence (looked up) 2: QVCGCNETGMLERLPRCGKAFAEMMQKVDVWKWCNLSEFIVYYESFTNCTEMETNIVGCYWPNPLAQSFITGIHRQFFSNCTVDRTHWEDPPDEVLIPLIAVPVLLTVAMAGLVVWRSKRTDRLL

T3: rat amylin receptor (rat calcitonin receptor + rat RAMP 3) (rat, UniProt P32214 25-516; Q9JJ73 23-147)
T3 construct: whole, on cells; Membranes prepared from transiently transfected BHK tk'ts 13 cells; also called rAmylin-R; rat amylin 3(a) receptor
T3 sequence (looked up) 1: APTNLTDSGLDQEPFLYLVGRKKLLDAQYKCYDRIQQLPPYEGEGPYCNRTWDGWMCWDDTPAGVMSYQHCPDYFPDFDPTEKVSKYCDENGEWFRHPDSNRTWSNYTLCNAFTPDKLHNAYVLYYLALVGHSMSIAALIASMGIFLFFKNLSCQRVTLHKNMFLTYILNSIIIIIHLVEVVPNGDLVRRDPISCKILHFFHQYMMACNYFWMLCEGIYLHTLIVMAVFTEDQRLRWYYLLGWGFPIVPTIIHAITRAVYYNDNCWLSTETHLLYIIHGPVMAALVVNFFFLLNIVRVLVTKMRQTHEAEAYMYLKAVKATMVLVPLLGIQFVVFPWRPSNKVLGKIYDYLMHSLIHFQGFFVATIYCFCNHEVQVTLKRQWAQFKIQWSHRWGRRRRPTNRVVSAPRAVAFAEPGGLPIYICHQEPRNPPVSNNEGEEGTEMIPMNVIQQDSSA
T3 sequence (looked up) 2: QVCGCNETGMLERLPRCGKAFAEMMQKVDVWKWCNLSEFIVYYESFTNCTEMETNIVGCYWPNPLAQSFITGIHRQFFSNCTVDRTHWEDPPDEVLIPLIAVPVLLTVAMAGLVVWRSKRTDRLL

T4: rat calcitonin receptor (rat, UniProt P32214 25-516)
T4 construct: whole, on cells; Membranes prepared from transiently transfected BHK tk'ts 13 cells; also called rCTR; rat calcitonin (a) receptor
T4 sequence (looked up): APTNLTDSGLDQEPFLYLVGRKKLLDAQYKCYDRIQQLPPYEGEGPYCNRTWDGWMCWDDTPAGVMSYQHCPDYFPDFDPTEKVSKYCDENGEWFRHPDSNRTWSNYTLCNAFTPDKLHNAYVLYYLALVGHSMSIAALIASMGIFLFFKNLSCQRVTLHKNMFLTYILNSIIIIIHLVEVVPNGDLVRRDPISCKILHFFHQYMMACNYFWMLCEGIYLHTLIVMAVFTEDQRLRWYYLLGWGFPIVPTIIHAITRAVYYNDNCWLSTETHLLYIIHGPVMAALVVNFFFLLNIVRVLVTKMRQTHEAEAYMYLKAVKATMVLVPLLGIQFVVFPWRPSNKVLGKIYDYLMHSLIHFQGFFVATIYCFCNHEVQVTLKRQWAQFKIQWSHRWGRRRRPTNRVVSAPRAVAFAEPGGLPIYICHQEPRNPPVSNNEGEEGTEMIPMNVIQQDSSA

T5: human calcitonin receptor (human, UniProt P30988 25-474)
T5 construct: whole, on cells; Membranes from stably transfected BHK cells; also called hCTR; hCT
T5 sequence (looked up): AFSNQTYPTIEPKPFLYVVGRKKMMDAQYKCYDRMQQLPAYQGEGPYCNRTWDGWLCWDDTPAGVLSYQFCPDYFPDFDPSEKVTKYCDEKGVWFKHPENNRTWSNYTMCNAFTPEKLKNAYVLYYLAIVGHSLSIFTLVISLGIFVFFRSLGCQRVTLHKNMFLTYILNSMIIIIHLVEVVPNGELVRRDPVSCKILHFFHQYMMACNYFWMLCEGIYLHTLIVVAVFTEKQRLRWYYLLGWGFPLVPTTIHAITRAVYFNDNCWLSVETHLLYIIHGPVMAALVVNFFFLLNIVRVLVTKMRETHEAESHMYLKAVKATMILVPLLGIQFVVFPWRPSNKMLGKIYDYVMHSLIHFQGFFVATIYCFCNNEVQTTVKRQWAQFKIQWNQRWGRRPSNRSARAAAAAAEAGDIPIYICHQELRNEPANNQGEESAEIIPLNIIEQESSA


How the values were obtained:
rat calcitonin receptor [1] = target: T1, rat calcitonin receptor; assay: SPA competition with 125I-calcitonin, membranes of BHK cells with rat calcitonin receptor (Assay VIII)
[2] = target: T2, rat amylin receptor (rat calcitonin …); assay: SPA competition with 125I-rat amylin, membranes of BHK cells with rat calcitonin receptor + rat RAMP3 (Assay VI)
[3] = target: T3, rat amylin receptor (rat calcitonin …); assay: SPA competition vs 125I-rat amylin, membranes (Assay VI)
rat calcitonin receptor [4] = target: T4, rat calcitonin receptor; assay: SPA competition vs 125I-calcitonin, membranes (Assay VIII)
rat calcitonin receptor [5] = target: T4, rat calcitonin receptor; assay: ratio of IC50 on rat calcitonin receptor to IC50 on rat amylin receptor
[6] = target: T5, human calcitonin receptor; assay: ratio of IC50 on human calcitonin receptor to IC50 on human amylin receptor
Method: The resulting pellet was resuspended, homogenized and centrifuged (20.000 rpm, 15 min) in a buffer containing 20 mM Na-HEPES and 0.1 mM EDTA (pH 7.4, buffer 2). The resulting pellet was resuspended in buffer 2 and protein concentration was measured (BCA protein Assay, Pierce). The homogenate was kept cold during the whole procedure. The membranes were kept at −80° C. until use. The assay was performed in a 384 well Optiplate (PerkinElmer) in a total volume of 40 ul. Membranes were mixed with SPA beads. Final concentration of membranes 35 ng/μL final and SPA beads was 0.05 mg/well. Test-compounds were dissolved in DMSO and further diluted in assay buffer (50 mM Hepes, pH 7.4, 1 mM CaCl2, 5 mM MgCl₂, 0.1% OA and 0.02% Tween20). […] The final mixture was incubated with shaking at 400 rpm for 120 min at 25° C. prior to centrifugation (1500 rpm, 10 min). Samples were analyzed on TopCounter™ (Packard). The IC₅₀ was calculated using (one site binding competition analysis) GraphPad Prism5 as a measure of receptor affinity.
Membranes were prepared in the following way; the cells were rinsed with PBS and incubated with Versene for approximately 5 min before harvesting. The cells were flushed with PBS and the cell-suspension was centrifuged for 5 min at 1000 rpm. Cells were homogenized (Ultrathurrax) in a buffer containing 20 mM Na-HEPES and 10 mM EDTA (pH 7.4) and centrifuged at 20.000 rpm for 15 min. The resulting pellet was resuspended, homogenized and centrifuged (20.000 rpm, 15 min) in a buffer containing 20 mM Na-HEPES and 0.1 mM EDTA (pH 7.4, buffer 2). The resulting pellet was resuspended in buffer 2 and protein concentration was measured (BCA protein Assay, Pierce). The homogenate was kept cold during the whole procedure. The membranes were kept at −80° C. until use. Assay was performed in a 384 well Optiplate (PerkinElmer) in a total volume of 40 ul. Membranes were mixed with SPA beads.

IC50 (rat calcitonin receptor [1]) [nM]	IC50 [2] [nM]	IC50 [3] [nM]	IC50 (rat calcitonin receptor [4]) [nM]	Ratio rCT/rAmylin binding (rat calcitonin receptor [5])	Ratio hCT/hAmylin binding [6]	Binder
38	0.383					K([AEEA-γGlu-C20 diacid])CNTATCATQRLANFLRHSSPNFGAIPSSTNVGSRTY-NH2 (disulfide 2-7; N-terminus assumed; SMILES CC[C@H](C)[C@H](NC(=O)[C@H](C)NC(=O)CNC(=O)[C@H](Cc1ccccc1)NC(=O)[C@H](CC(N)=O)NC(=O)[C@@H]1CCCN1C(=O)[C@H](CO)NC(=O)[C@H](CO)NC(=O)[C@H](Cc1c[nH]cn1)NC(=O)[C@H](CCCNC(=N)N)NC(=O)[C@H](CC(C)C)NC(=O)[C@H](Cc1ccccc1)NC(=O)[C@H](CC(N)=O)NC(=O)[C@H](C)NC(=O)[C@H](CC(C)C)NC(=O)[C@H](CCCNC(=N)N)NC(=O)[C@H](CCC(N)=O)NC(=O)[C@@H](NC(=O)[C@H](C)NC(=O)[C@@H]1CSSC[C@H](NC(=O)[C@@H](N)CCCCNC(=O)COCCOCCNC(=O)CC[C@H](NC(=O)CCCCCCCCCCCCCCCCCCC(=O)O)C(=O)O)C(=O)N[C@@H](CC(N)=O)C(=O)N[C@@H]([C@@H](C)O)C(=O)N[C@@H](C)C(=O)N[C@@H]([C@@H](C)O)C(=O)N1)[C@@H](C)O)C(=O)N1CCC[C@H]1C(=O)N[C@@H](CO)C(=O)N[C@@H](CO)C(=O)N[C@H](C(=O)N[C@@H](CC(N)=O)C(=O)N[C@H](C(=O)NCC(=O)N[C@@H](CO)C(=O)N[C@@H](CCCNC(=N)N)C(=O)N[C@H](C(=O)N[C@@H](Cc1ccc(O)cc1)C(N)=O)[C@@H](C)O)C(C)C)[C@@H](C)O, Derivative of human amylin; also called compound 38)
		0.182	16.1	88.5	17.6	K([γGlu-γGlu-C20 diacid])CNTATCATQRLAEFLRHSSPNFGAIPSSTNVGPETY-NH2 (disulfide 2-7 (inferred))
		5.45	388	71.3	63.4	K([AEEA-AEEA-γGlu-C20 diacid])CNTATCATQRLANFLRHSSPNFGAIPSSTNVGRNTY-NH2 (disulfide 2-7; N-terminus assumed; SMILES CC[C@H](C)[C@H](NC(=O)[C@H](C)NC(=O)CNC(=O)[C@H](Cc1ccccc1)NC(=O)[C@H](CC(N)=O)NC(=O)[C@@H]1CCCN1C(=O)[C@H](CO)NC(=O)[C@H](CO)NC(=O)[C@H](Cc1c[nH]cn1)NC(=O)[C@H](CCCNC(=N)N)NC(=O)[C@H](CC(C)C)NC(=O)[C@H](Cc1ccccc1)NC(=O)[C@H](CC(N)=O)NC(=O)[C@H](C)NC(=O)[C@H](CC(C)C)NC(=O)[C@H](CCCNC(=N)N)NC(=O)[C@H](CCC(N)=O)NC(=O)[C@@H](NC(=O)[C@H](C)NC(=O)[C@@H]1CSSC[C@H](NC(=O)[C@@H](N)CCCCNC(=O)COCCOCCNC(=O)COCCOCCNC(=O)CC[C@H](NC(=O)CCCCCCCCCCCCCCCCCCC(=O)O)C(=O)O)C(=O)N[C@@H](CC(N)=O)C(=O)N[C@@H]([C@@H](C)O)C(=O)N[C@@H](C)C(=O)N[C@@H]([C@@H](C)O)C(=O)N1)[C@@H](C)O)C(=O)N1CCC[C@H]1C(=O)N[C@@H](CO)C(=O)N[C@@H](CO)C(=O)N[C@H](C(=O)N[C@@H](CC(N)=O)C(=O)N[C@H](C(=O)NCC(=O)N[C@@H](CCCNC(=N)N)C(=O)N[C@@H](CC(N)=O)C(=O)N[C@H](C(=O)N[C@@H](Cc1ccc(O)cc1)C(N)=O)[C@@H](C)O)C(C)C)[C@@H](C)O, also called compound 95)
		2.24	159	71.1	104	K([AEEA-AEEA-γGlu-C20 diacid])CNTATCATQRLANFLRHSSPNFGAIPSSTNVGHNTY-NH2 (disulfide 2-7; N-terminus assumed; SMILES CC[C@H](C)[C@H](NC(=O)[C@H](C)NC(=O)CNC(=O)[C@H](Cc1ccccc1)NC(=O)[C@H](CC(N)=O)NC(=O)[C@@H]1CCCN1C(=O)[C@H](CO)NC(=O)[C@H](CO)NC(=O)[C@H](Cc1c[nH]cn1)NC(=O)[C@H](CCCNC(=N)N)NC(=O)[C@H](CC(C)C)NC(=O)[C@H](Cc1ccccc1)NC(=O)[C@H](CC(N)=O)NC(=O)[C@H](C)NC(=O)[C@H](CC(C)C)NC(=O)[C@H](CCCNC(=N)N)NC(=O)[C@H](CCC(N)=O)NC(=O)[C@@H](NC(=O)[C@H](C)NC(=O)[C@@H]1CSSC[C@H](NC(=O)[C@@H](N)CCCCNC(=O)COCCOCCNC(=O)COCCOCCNC(=O)CC[C@H](NC(=O)CCCCCCCCCCCCCCCCCCC(=O)O)C(=O)O)C(=O)N[C@@H](CC(N)=O)C(=O)N[C@@H]([C@@H](C)O)C(=O)N[C@@H](C)C(=O)N[C@@H]([C@@H](C)O)C(=O)N1)[C@@H](C)O)C(=O)N1CCC[C@H]1C(=O)N[C@@H](CO)C(=O)N[C@@H](CO)C(=O)N[C@H](C(=O)N[C@@H](CC(N)=O)C(=O)N[C@H](C(=O)NCC(=O)N[C@@H](Cc1c[nH]cn1)C(=O)N[C@@H](CC(N)=O)C(=O)N[C@H](C(=O)N[C@@H](Cc1ccc(O)cc1)C(N)=O)[C@@H](C)O)C(C)C)[C@@H](C)O, also called compound 97)
